Tests used:
Experiment in all cases: SPR, antibody captured, C2 as analyte;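 also: biacore at 37 °C, anti-C2 mAbs held by immobilised goat anti-human IgG, C2 alanine or serine mutants injected, double-referenced sensorgrams fitted to a 1:1 kinetic or steady-state model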
human C2 L439A = target: T1, human C2 L439A (human, UniProt P06681 21-752)
T1 sequence: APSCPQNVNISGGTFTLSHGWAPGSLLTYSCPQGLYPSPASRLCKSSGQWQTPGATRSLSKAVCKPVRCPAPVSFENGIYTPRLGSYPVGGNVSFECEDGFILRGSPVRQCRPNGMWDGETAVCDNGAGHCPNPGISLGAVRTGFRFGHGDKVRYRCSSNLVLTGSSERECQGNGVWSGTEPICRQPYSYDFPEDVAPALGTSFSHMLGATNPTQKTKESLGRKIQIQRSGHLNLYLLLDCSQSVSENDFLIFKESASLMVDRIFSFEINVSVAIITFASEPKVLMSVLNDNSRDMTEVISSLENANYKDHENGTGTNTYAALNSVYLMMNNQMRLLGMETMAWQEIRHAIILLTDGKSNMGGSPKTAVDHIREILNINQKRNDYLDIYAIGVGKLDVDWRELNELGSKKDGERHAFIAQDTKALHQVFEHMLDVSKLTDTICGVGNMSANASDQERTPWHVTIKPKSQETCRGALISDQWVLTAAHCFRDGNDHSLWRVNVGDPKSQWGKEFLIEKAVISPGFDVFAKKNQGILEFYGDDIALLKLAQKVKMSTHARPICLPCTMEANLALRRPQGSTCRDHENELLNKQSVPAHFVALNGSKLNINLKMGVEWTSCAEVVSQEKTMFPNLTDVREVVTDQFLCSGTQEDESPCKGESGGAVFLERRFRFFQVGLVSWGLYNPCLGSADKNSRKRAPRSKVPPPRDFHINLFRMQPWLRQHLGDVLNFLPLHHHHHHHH

human C2 E450A = target: T2, human C2 E450A (human, UniProt P06681 21-752)
T2 sequence: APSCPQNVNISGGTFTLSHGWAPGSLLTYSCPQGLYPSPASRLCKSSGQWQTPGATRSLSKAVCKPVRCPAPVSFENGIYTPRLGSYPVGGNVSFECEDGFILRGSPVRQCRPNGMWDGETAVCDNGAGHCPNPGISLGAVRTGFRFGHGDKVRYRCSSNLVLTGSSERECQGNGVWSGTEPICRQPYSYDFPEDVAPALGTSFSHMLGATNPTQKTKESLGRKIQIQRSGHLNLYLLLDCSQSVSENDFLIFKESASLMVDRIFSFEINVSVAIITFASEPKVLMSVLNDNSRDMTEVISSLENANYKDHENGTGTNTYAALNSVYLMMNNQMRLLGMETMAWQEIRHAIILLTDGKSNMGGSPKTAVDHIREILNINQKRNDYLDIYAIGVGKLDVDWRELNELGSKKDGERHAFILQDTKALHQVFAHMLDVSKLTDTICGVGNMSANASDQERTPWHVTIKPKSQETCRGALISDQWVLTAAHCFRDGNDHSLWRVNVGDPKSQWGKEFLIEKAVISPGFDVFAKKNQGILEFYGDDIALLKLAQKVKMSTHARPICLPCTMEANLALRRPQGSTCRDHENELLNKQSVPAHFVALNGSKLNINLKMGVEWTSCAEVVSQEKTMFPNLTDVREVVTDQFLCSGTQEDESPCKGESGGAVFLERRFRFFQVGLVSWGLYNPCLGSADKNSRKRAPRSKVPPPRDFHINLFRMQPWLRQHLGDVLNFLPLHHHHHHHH

human C2 K244A = target: T3, human C2 K244A (human, UniProt P06681 21-752)
T3 sequence: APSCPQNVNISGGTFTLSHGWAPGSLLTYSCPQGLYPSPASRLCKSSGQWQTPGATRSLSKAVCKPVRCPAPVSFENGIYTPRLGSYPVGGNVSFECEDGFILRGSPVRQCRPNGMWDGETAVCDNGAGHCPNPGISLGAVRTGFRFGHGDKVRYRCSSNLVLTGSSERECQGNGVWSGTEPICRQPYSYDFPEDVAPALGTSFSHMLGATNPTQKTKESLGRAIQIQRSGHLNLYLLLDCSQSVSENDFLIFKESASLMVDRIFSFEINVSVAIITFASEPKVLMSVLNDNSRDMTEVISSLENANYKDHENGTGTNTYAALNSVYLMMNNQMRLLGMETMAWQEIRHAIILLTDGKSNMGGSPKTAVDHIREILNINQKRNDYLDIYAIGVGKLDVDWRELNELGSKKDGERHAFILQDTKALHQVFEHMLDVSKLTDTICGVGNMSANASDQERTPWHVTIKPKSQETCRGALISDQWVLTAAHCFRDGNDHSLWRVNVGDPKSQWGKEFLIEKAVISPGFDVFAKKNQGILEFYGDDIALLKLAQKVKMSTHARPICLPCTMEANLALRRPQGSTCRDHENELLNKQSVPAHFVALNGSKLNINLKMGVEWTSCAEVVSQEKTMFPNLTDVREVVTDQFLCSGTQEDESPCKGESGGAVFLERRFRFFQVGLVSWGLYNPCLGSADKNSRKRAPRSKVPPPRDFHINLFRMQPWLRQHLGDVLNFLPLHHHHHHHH

human C2 D431A = target: T4, human C2 D431A (human, UniProt P06681 21-752)
T4 sequence: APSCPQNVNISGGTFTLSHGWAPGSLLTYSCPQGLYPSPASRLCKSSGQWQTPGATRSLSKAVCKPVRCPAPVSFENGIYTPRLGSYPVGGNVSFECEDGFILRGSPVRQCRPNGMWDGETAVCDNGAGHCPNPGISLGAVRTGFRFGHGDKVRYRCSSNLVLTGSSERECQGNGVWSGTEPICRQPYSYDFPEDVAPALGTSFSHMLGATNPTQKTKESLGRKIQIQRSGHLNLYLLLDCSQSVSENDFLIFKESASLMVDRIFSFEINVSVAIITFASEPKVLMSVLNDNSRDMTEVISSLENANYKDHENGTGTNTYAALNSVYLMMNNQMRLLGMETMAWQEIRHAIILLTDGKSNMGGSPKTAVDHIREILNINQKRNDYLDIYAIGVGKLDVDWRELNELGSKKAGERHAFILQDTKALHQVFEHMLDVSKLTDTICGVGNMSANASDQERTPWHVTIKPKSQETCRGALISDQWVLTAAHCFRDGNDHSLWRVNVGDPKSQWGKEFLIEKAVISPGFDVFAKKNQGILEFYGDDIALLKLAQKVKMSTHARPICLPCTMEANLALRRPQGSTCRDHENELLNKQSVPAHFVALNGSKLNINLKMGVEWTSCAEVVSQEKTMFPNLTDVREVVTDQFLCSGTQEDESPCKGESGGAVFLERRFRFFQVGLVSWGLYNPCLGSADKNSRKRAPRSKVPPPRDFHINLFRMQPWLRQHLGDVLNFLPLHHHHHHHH

B1: RF16-242 (antibody, human IgG4 S228P, lambda, V domains shown)
VH: EVQLLQSGAEVKKPGESLKISCKGSGYSFTSYWIGWVRQMPGKGLEWMGIIYPGDSDTRYSPSFQGQVTISADKSISTAYLQWSSLKASDTAMYYCARRGHYGDYFDYWGQGTLVTVSS
VL: SYELTQPPSVSVSPGQTARITCSGDALPKKYAYWYHQKSGQAPVLVIYEDRRRPSEIPERFSGSSSGTMATLTITGAQVEDEGVYFCYSRDRAGNQRVFGGGTQLTVLG
notes: pH-dependent anti-C2 antibody from a phage display library
Human C2 L439A
  Kd: 170 nM
Human C2 E450A
  Kd: 20.3 nM
Human C2 K244A
  Kd: 26.2 nM
Human C2 D431A
  Kd: 22.9 nM

From US20220332804A1 (CSL INNOVATION, published 2022)
